# Measurements published in US20110230650A1 (NORTHWESTERN UNIVERSITY, published 2011).
# Molecular target: the molecule itself
# Test: gel filtration (Superdex 200) of His-tagged LP4 purified without detergent; lipid nanodisc
# Text: In some embodiments, the presently disclosed compositions comprise a distinct form of polypeptides that are specifically engineered to spontaneously solubilize membrane proteins without a detergent intermediary (i.e., “LP” molecules). […] For example, in some embodiments the polypeptides comprise multiple repeats of an amphipathic helical fragment of ApoA1. […] The eluted protein was run on a gel filtration column (Superdex 200, FIG. 3, middle panel). […] The protein behaved as expected: it self-assembled as a dimer of appropriate size (as in FIG. 2) and solubilized a membrane fragment.
protein,measurement,value
"histidine-tagged LP4 (designed binder, Histidine-tagged LP4 purified without detergent as an empty, lipid-filled nanodisc; not shown: histidine tag) FQKKWQEEMELYRQKVEPLRAELQEGARQKLHELQEKLSPLGEEMRDRARAHVDAFQKKWQEEMELYRQKVEPLRAELQEGARQKLHELQEKLSPLGEEMRDRARAHVDAFQKKWQEEMELYRQKVEPLRAELQEGARQKLHELQEKLSPLGEEMRDRARAHVDAFQKKWQEEMELYRQKVEPLRAELQEGARQKLHELQEKLSPLGEEMRDRARAHVDA",binding result,binds
